Measured values taken from publication PMC8336894 (Genes & Development, 2021).

Biological target: T1, CRY1 (human (endogenous in HEK293), UniProt Q16526 1-586)
T1 sequence (looked up): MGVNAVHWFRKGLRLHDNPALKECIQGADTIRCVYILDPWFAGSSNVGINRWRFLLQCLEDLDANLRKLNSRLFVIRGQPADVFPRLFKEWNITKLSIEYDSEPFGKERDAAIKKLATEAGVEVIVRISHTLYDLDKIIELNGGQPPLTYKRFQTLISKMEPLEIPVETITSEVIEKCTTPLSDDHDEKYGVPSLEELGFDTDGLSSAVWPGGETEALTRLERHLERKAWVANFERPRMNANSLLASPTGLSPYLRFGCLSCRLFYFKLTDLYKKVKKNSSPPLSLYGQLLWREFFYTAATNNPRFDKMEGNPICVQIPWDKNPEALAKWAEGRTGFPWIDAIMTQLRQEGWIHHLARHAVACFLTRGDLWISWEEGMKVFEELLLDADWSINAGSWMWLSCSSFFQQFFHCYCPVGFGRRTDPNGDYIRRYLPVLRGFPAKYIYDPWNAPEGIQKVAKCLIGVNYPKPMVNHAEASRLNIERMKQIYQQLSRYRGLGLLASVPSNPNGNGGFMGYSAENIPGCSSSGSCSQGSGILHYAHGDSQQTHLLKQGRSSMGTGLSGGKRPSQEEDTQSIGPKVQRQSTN
Test: co-IP

B1: BMAL1-luciferase fusion protein (natural protein)
chain: not shown
B1 was tested, and the “fold luciferase activity in the precipitate over the IgG control” value was about 3 fold.
